Publication PMC10872421
pEC50: −log10 of the molar value.

Columns and labels:
[1] = biological target: FMAL-labeled F-actin (rabbit skeletal muscle) (rabbit) (UniProt P68135); assay: FRET or BRET
[2] = biological target: FMAL-labeled F-actin (rabbit) (UniProt P68135); assay: co-sedimentation
[3] = biological target: FMAL-labeled F-actin (rabbit) (UniProt P68135); assay: FRET or BRET
[4] = biological target: FMAL-labeled RLC-exchanged full-length cardiac myosin (porcine (ventricles) | human) (UniProt P79293); assay: FRET or BRET

Substance: TMR-C0-C2^(cys249, L352P) (domain or fragment)
- pEC50 [1]: 5.88

Substance: C0-C2^cys85, PKA-phosphorylated (domain or fragment)
- fold increase of EC50 upon phosphorylation [2]: 1.1 fold
- fold change of EC50 upon phosphorylation [3]: 2.9 fold
- reduction of FRET at 2.5 μM upon phosphorylation [3]: 52%

Substance: C0-C2^(cys330, L349R) (domain or fragment)
- FLT-FRET at 2.5 μM relative to WT (relative to WT) [4]: 1.6

Substance: C0-C2^(cys330, E334K), PKA-phosphorylated (domain or fragment)
- FLT-FRET at 2.5 μM relative to WT (relative to WT) [4]: 2

Substance: C0-C2^cys249, PKA-phosphorylated (domain or fragment)
- fold increase of EC50 upon phosphorylation [2]: 1.6 fold
- fold change of EC50 upon phosphorylation [3]: 1.7 fold
- reduction of FRET at 2.5 μM upon phosphorylation [3]: 52%

Substance: C0-C2^(cys330, R282W) (domain or fragment)
- FLT-FRET at 2.5 μM relative to WT (relative to WT) [3]: 1.1

Substance: C0-C2^cys85 (domain or fragment)
- pEC50 [3]: 5.85
- pEC50 [4]: 5.05

Substance: C0-C2^cys249 (domain or fragment)
- pEC50 [3]: 5.52
- pEC50 [4]: 5.47

Substance: TMR-C0-C2^cys249 (domain or fragment)
- pEC50 [1]: 5.67

Substance: C0-C2^(cys249, L349R) (domain or fragment)
- FLT-FRET at 2.5 μM relative to WT (relative to WT) [3]: 1.1

Substance: C0-C2^(cys249, L349R), PKA-phosphorylated (domain or fragment)
- FLT-FRET at 2.5 μM relative to WT (relative to WT) [3]: 1.31

Substance: C0-C2^cys330 (domain or fragment)
- pEC50 [3]: 5.20
- pEC50 [4]: 5.16

Substance: C0-C2^(cys249, E334K), PKA-phosphorylated (domain or fragment)
- FLT-FRET at 2.5 μM relative to WT (relative to WT) [4]: 1.7
